Test results taken from publication PMC7393505.

Target: 4×SUMO2 linear fusion (C47A) with a single C-terminal cysteine labelled with Alexa488
Assay: fluorescence polarisation; unlabelled RNF4 titrated against 1 µM 4×SUMO-Alexa488; 50 mM Tris, 150 mM NaCl, 0.5 mM TCEP, pH 7.5; room temperature, 10 min before measuring FP

Kd: 2600 nM
Substance: RNF4 ∆Basic, full-length (basic charge removed from the arginine-rich motif) (from UniProt O88846 1-194) (enzyme)
